Measured values reported in article PMC4141209 (FEBS Open Bio, 2014).

Target: the molecule itself
Experiment: SEC

B1: TlLhpH (trans-3-hydroxy-L-proline dehydratase from Thermococcus litoralis DSM 5473) (enzyme, UniProt H3ZMH8 1-348, looked up)
chain: MFKKLENLEKWEPPKDWMVIKTLDTHTAGEPLRIILSGFPEIPGKTILEKRRYLMENLDHLRKALMWEPRGHADMYGAIITEPVSEEADFGVIFMHNEGYSTMCGHATIALGKVAVECGLVEAKEPITEIKMDSPAGLIKIYVKVRDGKVEKVYFHNVPSFVLFKDETINVPGIGEVKYDLAYGGAFYAFVNAEEIGLKCTPEYYRQLIDVGMKIKRAIMSEKEIRHPFEEDLSFLYGTIFIGEPEDENSHSRHVCIFADGEVDRSPTGTGVSARLAILYEKGEIDIGEEITIESIIGTKFTGKVVEETRYGLYRAIIPEVGGNAYIVAKNTFLIDPQDPLKYGFFLR
  stoichiometry N: 2
